Drawing on the Immune Epitope Database (IEDB), this text covers Kd for 43 sequences.

The target in assay [1] is HLA-A*01:01. Put plainly: IEDB peptide-MHC binding, purified MHC/competitive/radioactivity; filed as Kd, often an IC50 or EC50 that approximates it; ≥ and ≤ were set here for values at or beyond the usual limits of such assays.
The target in assay [2] is HLA-A*24:02. Described as above.
For assay [3], the target named is HLA-A*23:01. The description is as above.
The target of assay [4] is HLA-A*26:01. Described as above.
Assay [5] addresses HLA-A*02:02. The assay is described as above.
Assay [6] deals with HLA-A*02:03. Described as above.
For assay [7], the target named is HLA-A*02:06. The description is as above.
Assay [8] deals with HLA-A*03:01. Nature of the assay: IEDB peptide-MHC binding, purified MHC/direct/fluorescence; filed as Kd, often an IC50 or EC50 that approximates it; ≥ and ≤ were set here for values at or beyond the usual limits of such assays. The conditions noted are these: source organism: Mammarenavirus juninense.
Where [9] appears, read: source organism: Dengue virus 1 Brazil/97-11/1997.
Where [10] appears, read: source organism: Dengue virus 2 Jamaica/1409/1983.
The mark [11] stands for this setting: source organism: Dengue virus 3 Martinique/1243/1999.
Setting [12] is: source organism: Dengue virus 4 Dominica/814669/1981.
[13] abbreviates: source organism: Mammarenavirus guanaritoense.
Setting [14] is: source organism: Dengue virus 4 Philippines/H241/1956.
The mark [15] stands for this setting: source organism: Variola major virus.
The mark [16] stands for this setting: source organism: Vaccinia virus WR.
[17] abbreviates: source organism: Mammarenavirus juninense.
The mark [18] stands for this setting: source organism: Mammarenavirus brazilense.

The term Kd denotes the equilibrium constant for the complex coming apart. With LIGNENYLDY, in assay [1] (setting [9]), the Kd is 6080 nM.

Regarding VHTWTEQYKF, the Kd in assay [2] (setting [10]) was 3780 nM; in assay [3] (setting [10]), 889 nM.

In the case of PYMPTVIEHL, the Kd in assay [2] (setting [11]) stood at 46.2 nM; in assay [3] (setting [11]), 43.4 nM.

Take LYAVATTFVT: the Kd in assay [2] (setting [10]) stood at 550 nM.

In the case of ELIDGISLGL, in assay [4] (setting [12]), the Kd was determined as 500 nM.

Consider HTLIMIGSNA, for which, in assay [4] (setting [11]), the dissociation constant (Kd) is not below 22700 nM.

For VFHELPSLC, the results for the Kd in assay [4] (setting [13]) and in assay [1] (setting [13]) were not below 77900 nM and not below 78100 nM, respectively.

Regarding TWMDLLRALI, the equilibrium dissociation constant (Kd) stood at 128 nM in assay [2] (setting [14]) and 21.7 nM in assay [3] (setting [14]).

As to STITLLCLI, the dissociation constant (Kd) in assay [4] (setting [12]) turned out to be 867 nM.

For the sequence QYIYMGEPLE, the Kd in assay [2] (setting [10]) is 9090 nM.

As to LAYVVIGLLF, the Kd in assay [3] (setting [9]) turned out to be 36.4 nM.

Regarding NLDDVYSYI, the Kd stood at 0.722 nM in assay [5] (setting [15]), 96 nM in assay [6] (setting [15]) and 91.8 nM in assay [7] (setting [15]).

In the case of TTIGTIAGGV, the values for the Kd in assay [5] (setting [16]), in assay [6] (setting [16]) and in assay [7] (setting [16]) were 741 nM, 42.6 nM and 84.3 nM, respectively.

As to DTIETLMLL, in assay [4] (setting [9]), the Kd was 141 nM.

On to YAGTIKESL, for which the dissociation constant (Kd) in assay [5] (setting [16]) came out at 2070 nM; in assay [6] (setting [16]), 2490 nM; in assay [7] (setting [16]), 3300 nM.

In the case of LLGLILFVL, the Kd in assay [5] (setting [16]) was 266 nM; in assay [6] (setting [16]) it was 1860 nM; in assay [7] (setting [16]), 8140 nM.

Consider KLPTLFGRGV, for which the equilibrium dissociation constant (Kd) stood at 190 nM in assay [5] (setting [16]), 32.6 nM in assay [6] (setting [16]) and 52.6 nM in assay [7] (setting [16]).

For the sequence FIMRNFLRSI, the Kd in assay [5] (setting [16]) worked out at 27.7 nM; in assay [6] (setting [16]), 0.118 nM; in assay [7] (setting [16]) it was 0.447 nM.

Regarding RTRLYDYFT, the Kd is 7100 nM in assay [5] (setting [16]), 3050 nM in assay [6] (setting [16]) and not below 48500 nM in assay [7] (setting [16]).

On to SLFNRGRLK, for which the Kd in assay [8] is 42.4 nM.

With ETLFGSYIT, the Kd in assay [5] (setting [16]) was determined as 2490 nM; in assay [6] (setting [16]) it was 2440 nM; in assay [7] (setting [16]), 15300 nM.

With VFGSVYTTMF, the Kd was determined as 1170 nM in assay [2] (setting [14]) and 57.3 nM in assay [3] (setting [14]).

GALYLGHSA: the Kd in assay [5] (setting [16]) was 7500 nM; in assay [6] (setting [16]), 1900 nM; in assay [7] (setting [16]), 792 nM.

In the case of QVKELGIAI, the Kd was found to be 9050 nM in assay [5] (setting [16]), 882 nM in assay [6] (setting [16]) and 3710 nM in assay [7] (setting [16]).

As to PIPYSRVNHA, the Kd came out at 11700 nM in assay [5] (setting [16]), 15300 nM in assay [6] (setting [16]) and 1450 nM in assay [7] (setting [16]).

As for ALNIALVAV, the results for the Kd in assay [5] (setting [17]), in assay [6] (setting [17]) and in assay [7] (setting [17]) were 15.3 nM, 4.46 nM and 370 nM, respectively.

On to NTYKRSGIM, for which the Kd in assay [4] (setting [9]) is 6550 nM.

Consider ELPVKTDIV, for which the Kd in assay [5] (setting [16]) is not below 23000 nM; in assay [6] (setting [16]), 8060 nM; in assay [7] (setting [16]) it was 11500 nM.

With KNATWCLEV, the Kd in assay [5] (setting [18]) is 1610 nM; in assay [6] (setting [18]), 7010 nM; in assay [7] (setting [18]) it was 2310 nM.

As to VIPDELIDV, the Kd in assay [5] (setting [16]) stood at 609 nM; in assay [6] (setting [16]), 43.8 nM; in assay [7] (setting [16]), 556 nM.

PTSETMYLTM: the Kd in assay [5] (setting [16]) was determined as 862 nM; in assay [6] (setting [16]) it was 191 nM; in assay [7] (setting [16]) it was 915 nM.

As for SWILRNPGF, the dissociation constant (Kd) in assay [2] (setting [14]) amounted to 369 nM; in assay [3] (setting [14]), 496 nM.

FMSHVKSVT: the Kd was determined as 508 nM in assay [5] (setting [16]), 181 nM in assay [6] (setting [16]) and 4320 nM in assay [7] (setting [16]).

In the case of CTIVDSMII, the Kd in assay [5] (setting [16]) was determined as 13900 nM; in assay [6] (setting [16]), 1790 nM; in assay [7] (setting [16]) it was 4580 nM.

Take ITVDDDGTM: in assay [4] (setting [11]), the Kd is 13900 nM.

As to NSEQGGRAY, in assay [1] (source organism: Dengue virus 1 Singapore/S275/1990), the Kd was 316 nM.

Regarding ILDNAAKYV, the Kd in assay [5] (setting [16]) stood at 126 nM; in assay [6] (setting [16]), 261 nM; in assay [7] (setting [16]), 1810 nM.

As to YVHEGVSYEV, the Kd in assay [5] (setting [16]) was determined as 12.9 nM; in assay [6] (setting [16]), 71 nM; in assay [7] (setting [16]), 9.08 nM.

As to DVEKRILNTI, the Kd in assay [5] (setting [16]) was not below 21000 nM; in assay [6] (setting [16]) it was 12600 nM; in assay [7] (setting [16]), 10800 nM.

Consider VIDLEPISY, for which the Kd in assay [1] (setting [14]) was found to be 51.7 nM.

Consider GMMQNDYGGM, for which the Kd in assay [5] (setting [16]) was determined as 103 nM; in assay [6] (setting [16]), 589 nM; in assay [7] (setting [16]), 12000 nM.

In the case of EVNDTHYTV, the Kd is 133 nM in assay [5] (setting [16]), 115 nM in assay [6] (setting [16]) and 4780 nM in assay [7] (setting [16]).

As for VFTTNIWLK, the Kd in assay [3] (setting [10]) was not below 30900 nM.
